Series [1] is described as follows: Oral bioavailability of hydrocodone conjugates in rats, LC/MS/MS. The note with it: for Percent Decrease 1 mg/kg vs. 5 mg/kg AUC / Percent Decrease 1 mg/kg vs. 5 mg/kg Cmax: oral bioavailability; for hydrocodone plus hydromorphone concentration / AUC (ng/ml h) 0-8 h / Cmax / Percent HC (AUC) / Percent HC (Cmax) / Peak levels and bioavailability: oral; for AUC (ng/ml h) 0-8 h / Cmax: hydrocodone plus hydromorphone; for Percent HC (AUC) / Percent HC (Cmax): relative to hydrocodone bitartrate; for Peak levels and bioavailability: rat, 5 mg/kg.

Series [2] is described as follows: Intranasal bioavailability of hydrocodone conjugates in rats, LC/MS/MS. The note with it: intranasal, 1 mg/kg dose; for AUC (ng/ml h) 0-1 h / Cmax: hydrocodone plus hydromorphone; for Percent HC (AUC) / Percent HC (Cmax): relative to hydrocodone bitartrate.
The nature of series [3]: Oral pharmacokinetics in rats, plasma d-amphetamine by ELISA. The note with it: Oral, relative to amphetamine (first value where two are given). Background: In an ELISA, binding on a coated surface is turned into a signal by an enzyme label.
Series [4] can be described thus: Intravenous bioavailability of hydrocodone conjugates in rats, LC/MS/MS. The note with it: intravenous, 1 mg/kg dose; for AUC (ng/ml h) 0-1 h / Cmax: hydrocodone plus hydromorphone; for Percent HC (AUC) / Percent HC (Cmax): relative to hydrocodone bitartrate.

SMILES strings stand for the structures. Where a SMILES comes first, the peptide text is derived from it. The star is where a group is joined. X1 = COc1ccc2c3c1O[C@H]1C(O*)=CC[C@H]4[C@@H](C2)N(C)CC[C@]314

In general, Cmax refers to the peak of the concentration-time curve.

Take `CC[C@H](C)[C@H](NC(=O)[C@H](CC(=O)O)NC(=O)[C@@H](N)CC(=O)O)C(=O)OC1=CC[C@H]2[C@H]3Cc4ccc(OC)c5c4[C@@]2(CCN3C)[C@H]1O5` [DDI-HC, Asp-Asp-Ile-Hydrocodone]: the “Percent Decrease 1 mg/kg vs. 5 mg/kg AUC” value in series [1] is recorded as 9%. The “Percent Decrease 1 mg/kg vs. 5 mg/kg Cmax” value in series [1] amounted to 9%. Also, the “hydrocodone plus hydromorphone concentration” value amounted to 14.9 ng/mL in series [1] (1 mg/kg dose, 0.5 Hours); 5 ng/mL in series [1] (1 mg/kg dose, 1.5 Hours); 0 ng/mL in series [1] (1 mg/kg dose, 3 Hours); 0 ng/mL in series [1] (1 mg/kg dose, 5 Hours); 0 ng/mL in series [1] (1 mg/kg dose, 8 Hours); 115 ng/mL in series [1] (5 mg/kg dose, 0.5 Hours). For the same molecule, the “hydrocodone plus hydromorphone concentration” value in series [1] (5 mg/kg dose, 1.5 Hours) was 19 ng/mL; in series [1] (5 mg/kg dose, 3 Hours) it was 11 ng/mL; in series [1] (5 mg/kg dose, 5 Hours), 4 ng/mL; in series [1] (5 mg/kg dose, 8 Hours), 3.1 ng/mL; in series [2] (5 Minutes), 281 ng/mL; in series [2] (15 Minutes), 121 ng/mL. For the same molecule, the “hydrocodone plus hydromorphone concentration” value in series [2] (30 Minutes) was determined as 64 ng/mL; in series [2] (60 Minutes) it was 16 ng/mL. The “AUC (ng/ml h) 0-8 h” value was 17.4 ng·h/mL in series [1] (1 mg/kg dose) and 145 ng·h/mL in series [1] (5 mg/kg dose). In addition, the figures for the Cmax in series [1] (1 mg/kg dose), in series [1] (5 mg/kg dose) and in series [2] were 14.9 ng/mL, 115 ng/mL and 281 ng/mL, respectively. Further, the entries for the “Percent HC (AUC)” value in series [1] (1 mg/kg dose), in series [1] (5 mg/kg dose) and in series [2] were 124%, 113% and 31%, respectively. Also, the results for the “Percent HC (Cmax)” value in series [1] (1 mg/kg dose), in series [1] (5 mg/kg dose) and in series [2] were 173%, 158% and 51%, respectively. For the same molecule, the “Peak levels and bioavailability” value in series [1] was “substantially decreased”. Further, the “AUC (ng/ml h) 0-1 h” value in series [2] came out at 88 ng·h/mL.

Regarding `CC(Cc1ccccc1)NC(=O)C(N)CCC(=O)O` (centres unmarked) [E-Amp], in series [3], the “Percent AUC” value worked out at 73% and the “Percent Cmax” value was determined as 95%.

Consider `CC(Cc1ccccc1)NC(=O)[C@H](CCC(=O)O)NC(=O)[C@@H](N)CCC(=O)O` (some centres unmarked) [EE-Amp], for which, in series [3], the “Percent AUC” value amounted to 26% and the “Percent Cmax” value is listed as 74%.

Regarding `CC(Cc1ccccc1)NC(=O)[C@H](Cc1ccccc1)NC(=O)[C@H](CCC(=O)O)NC(=O)[C@@H](N)CCC(=O)O` (some centres unmarked) [EEF-Amp], in series [3], the “Percent AUC” value is listed as 42% and the “Percent Cmax” value is on record as 73%.

Turning to `COc1ccc2c3c1O[C@H]1C(OC(=O)[C@H](Cc4ccccc4)NC(=O)[C@H](Cc4ccccc4)NC(=O)[C@H](Cc4ccccc4)NC(=O)[C@H](CCC(=O)O)NC(=O)[C@@H](N)CCC(=O)O)=CC[C@H]4[C@@H](C2)N(C)CC[C@]314` [EEFFF[SEQ ID NO: 3]-HC, Glu-Glu-Phe-Phe-Phe[SEQ ID NO: 3]-Hydrocodone] (H-EEFFF-X1), the “hydrocodone plus hydromorphone concentration” value in series [1] (1 mg/kg dose, 0.5 Hours) is 11.3 ng/mL; in series [1] (1 mg/kg dose, 1.5 Hours), 4.1 ng/mL; in series [1] (1 mg/kg dose, 3 Hours) it was 1.2 ng/mL; in series [1] (1 mg/kg dose, 5 Hours), 1.2 ng/mL; in series [1] (1 mg/kg dose, 8 Hours), 1.2 ng/mL; in series [2] (5 Minutes), 34 ng/mL. The “hydrocodone plus hydromorphone concentration” value came to 21 ng/mL in series [2] (15 Minutes); 24 ng/mL in series [2] (30 Minutes); 15 ng/mL in series [2] (60 Minutes); 135 ng/mL in series [4] (5 Minutes); 77 ng/mL in series [4] (15 Minutes); 140 ng/mL in series [4] (30 Minutes). In addition, the “hydrocodone plus hydromorphone concentration” value in series [4] (60 Minutes) turned out to be 85 ng/mL. Also, the “AUC (ng/ml h) 0-8 h” value in series [1] (1 mg/kg dose) was found to be 20.7 ng·h/mL. For the same molecule, the Cmax turned out to be 11.3 ng/mL in series [1] (1 mg/kg dose), 34 ng/mL in series [2] and 135 ng/mL in series [4]. Further, the “Percent HC (AUC)” value in series [1] (1 mg/kg dose) stood at 108%; in series [2], 14%; in series [4], 62%. The entries for the “Percent HC (Cmax)” value in series [1] (1 mg/kg dose), in series [2] and in series [4] were 119%, 13% and 75%, respectively. Besides, the figures for the “AUC (ng/ml h) 0-1 h” value in series [2] and in series [4] were 21 ng·h/mL and 107 ng·h/mL, respectively.

With `CC[C@H](C)[C@H](NC(=O)[C@H](Cc1ccccc1)NC(=O)[C@H](Cc1ccccc1)NC(=O)[C@H](CCC(=O)O)NC(=O)[C@@H](N)CCC(=O)O)C(=O)OC1=CC[C@H]2[C@H]3Cc4ccc(OC)c5c4[C@@]2(CCN3C)[C@H]1O5` [EEFFI[SEQ ID NO: 5]-HC, Glu-Glu-Phe-Phe-Ile[SEQ ID NO: 5]-Hydrocodone] (H-EEFFI-X1), in series [1], the “Percent Decrease 1 mg/kg vs. 5 mg/kg AUC” value was determined as 70%. Further, in series [1], the “Percent Decrease 1 mg/kg vs. 5 mg/kg Cmax” value stood at 65%. Besides, the “hydrocodone plus hydromorphone concentration” value in series [1] (1 mg/kg dose, 0.5 Hours) amounted to 12.9 ng/mL; in series [1] (1 mg/kg dose, 1.5 Hours) it was 5.2 ng/mL; in series [1] (1 mg/kg dose, 3 Hours), 4.2 ng/mL; in series [1] (1 mg/kg dose, 5 Hours) it was 0 ng/mL; in series [1] (1 mg/kg dose, 8 Hours) it was 1.6 ng/mL; in series [1] (5 mg/kg dose, 0.5 Hours) it was 44 ng/mL. Moreover, the “hydrocodone plus hydromorphone concentration” value in series [1] (5 mg/kg dose, 1.5 Hours) was 6.5 ng/mL; in series [1] (5 mg/kg dose, 3 Hours), 5.7 ng/mL; in series [1] (5 mg/kg dose, 5 Hours), 4.2 ng/mL; in series [1] (5 mg/kg dose, 8 Hours) it was 4.5 ng/mL; in series [4] (5 Minutes) it was 89 ng/mL; in series [4] (15 Minutes), 76 ng/mL. In addition, the “hydrocodone plus hydromorphone concentration” value in series [4] (30 Minutes) stood at 78 ng/mL; in series [4] (60 Minutes), 66 ng/mL. Moreover, the “AUC (ng/ml h) 0-8 h” value in series [1] (1 mg/kg dose) worked out at 25.8 ng·h/mL; in series [1] (5 mg/kg dose), 68 ng·h/mL. The Cmax in series [1] (1 mg/kg dose) was 12.9 ng/mL; in series [1] (5 mg/kg dose), 44 ng/mL; in series [4], 89 ng/mL. Besides, the “Percent HC (AUC)” value in series [1] (1 mg/kg dose) came out at 135%; in series [1] (5 mg/kg dose) it was 41%; in series [4], 38%. In addition, the “Percent HC (Cmax)” value in series [1] (1 mg/kg dose) is recorded as 136%; in series [1] (5 mg/kg dose), 47%; in series [4] it was 44%. The “Peak levels and bioavailability” value in series [1] was “substantially decreased”. For the same molecule, the “AUC (ng/ml h) 0-1 h” value in series [4] worked out at 66 ng·h/mL.

Turning to `CC[C@H](C)[C@H](NC(=O)[C@H](Cc1ccccc1)NC(=O)[C@H](Cc1ccccc1)NC(=O)[C@H](Cc1ccc(O)cc1)NC(=O)[C@@H](N)Cc1ccc(O)cc1)C(=O)OC1=CC[C@H]2[C@H]3Cc4ccc(OC)c5c4[C@@]2(CCN3C)[C@H]1O5` [YYFFI[SEQ ID NO: 3]-HC] (H-YYFFI-X1), the “hydrocodone plus hydromorphone concentration” value amounted to 28 ng/mL in series [2] (5 Minutes), 27 ng/mL in series [2] (15 Minutes), 16 ng/mL in series [2] (30 Minutes) and 21 ng/mL in series [2] (60 Minutes). In series [2], the “AUC (ng/ml h) 0-1 h” value was determined as 20 ng·h/mL. The Cmax in series [2] is 28 ng/mL. For the same molecule, the “Percent HC (AUC)” value in series [2] was 100%. Further, the “Percent HC (Cmax)” value in series [2] came to 5%.

Take `CC[C@H](C)[C@H](NC(=O)[C@H](Cc1ccc(O)cc1)NC(=O)[C@@H](N)Cc1ccc(O)cc1)C(=O)OC1=CC[C@H]2[C@H]3Cc4ccc(OC)c5c4[C@@]2(CCN3C)[C@H]1O5` [YYI-HC, Tyr-Tyr-Ile-Hydrocodone]: the “Percent Decrease 1 mg/kg vs. 5 mg/kg AUC” value in series [1] was determined as 41%. Besides, the “Percent Decrease 1 mg/kg vs. 5 mg/kg Cmax” value in series [1] was determined as 60%. For the same molecule, the “hydrocodone plus hydromorphone concentration” value turned out to be 9.2 ng/mL in series [1] (1 mg/kg dose, 0.5 Hours); 4.3 ng/mL in series [1] (1 mg/kg dose, 1.5 Hours); 1.5 ng/mL in series [1] (1 mg/kg dose, 3 Hours); 1.1 ng/mL in series [1] (1 mg/kg dose, 5 Hours); 1.8 ng/mL in series [1] (1 mg/kg dose, 8 Hours); 15 ng/mL in series [1] (5 mg/kg dose, 0.5 Hours). For the same molecule, the “hydrocodone plus hydromorphone concentration” value in series [1] (5 mg/kg dose, 1.5 Hours) amounted to 6.3 ng/mL; in series [1] (5 mg/kg dose, 3 Hours) it was 3.3 ng/mL; in series [1] (5 mg/kg dose, 5 Hours), 1.6 ng/mL; in series [1] (5 mg/kg dose, 8 Hours) it was 2.7 ng/mL; in series [2] (5 Minutes), 31 ng/mL; in series [2] (15 Minutes), 17 ng/mL. In addition, the “hydrocodone plus hydromorphone concentration” value turned out to be 12 ng/mL in series [2] (30 Minutes); 2 ng/mL in series [2] (60 Minutes); 9 ng/mL in series [4] (5 Minutes); 13 ng/mL in series [4] (15 Minutes); 13 ng/mL in series [4] (30 Minutes); 3 ng/mL in series [4] (60 Minutes). Besides, the “AUC (ng/ml h) 0-8 h” value in series [1] (1 mg/kg dose) came out at 20.4 ng·h/mL; in series [1] (5 mg/kg dose), 33 ng·h/mL. Further, the Cmax was 9.2 ng/mL in series [1] (1 mg/kg dose), 15 ng/mL in series [1] (5 mg/kg dose), 31 ng/mL in series [2] and 13 ng/mL in series [4]. Besides, the “Percent HC (AUC)” value was 78% in series [1] (1 mg/kg dose), 46% in series [1] (5 mg/kg dose), 4% in series [2] and 7% in series [4]. Besides, the “Percent HC (Cmax)” value came to 100% in series [1] (1 mg/kg dose), 41% in series [1] (5 mg/kg dose), 6% in series [2] and 6% in series [4]. In addition, the “Peak levels and bioavailability” value in series [1] was “substantially decreased”. Further, the “AUC (ng/ml h) 0-1 h” value in series [2] is 12 ng·h/mL; in series [4], 10 ng·h/mL.

The values above are taken from patent US7375083B2, “Pharmaceutical compositions for prevention of overdose or abuse” (Shire LLC, priority 2003, dated 2008).
